Laboratory results published in paper PMC11103505 (2024).
Changes are numbered by the printed parent chain. Values belong to the binder of their own block, whether it stands above or below them.

Assays:
Test in all cases: SPR
[1] = target: recombinant human AXL protein (human, UniProt P30530 26-451)
Target sequence in this assay (P30530 26-451): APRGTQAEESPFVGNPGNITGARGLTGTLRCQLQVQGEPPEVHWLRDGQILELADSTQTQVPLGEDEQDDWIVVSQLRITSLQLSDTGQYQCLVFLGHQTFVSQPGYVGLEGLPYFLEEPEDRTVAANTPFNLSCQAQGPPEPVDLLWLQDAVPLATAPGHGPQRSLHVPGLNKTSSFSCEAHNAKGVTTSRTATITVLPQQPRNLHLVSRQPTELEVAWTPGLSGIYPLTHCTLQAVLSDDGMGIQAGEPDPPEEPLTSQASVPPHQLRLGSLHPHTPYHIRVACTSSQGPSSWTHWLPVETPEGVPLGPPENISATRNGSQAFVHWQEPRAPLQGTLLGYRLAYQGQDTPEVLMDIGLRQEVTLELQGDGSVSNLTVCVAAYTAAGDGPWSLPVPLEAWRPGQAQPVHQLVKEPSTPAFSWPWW

[2] = target: T1, recombinant mouse AXL protein (mouse, UniProt Q00993 19-445)
T1 chain: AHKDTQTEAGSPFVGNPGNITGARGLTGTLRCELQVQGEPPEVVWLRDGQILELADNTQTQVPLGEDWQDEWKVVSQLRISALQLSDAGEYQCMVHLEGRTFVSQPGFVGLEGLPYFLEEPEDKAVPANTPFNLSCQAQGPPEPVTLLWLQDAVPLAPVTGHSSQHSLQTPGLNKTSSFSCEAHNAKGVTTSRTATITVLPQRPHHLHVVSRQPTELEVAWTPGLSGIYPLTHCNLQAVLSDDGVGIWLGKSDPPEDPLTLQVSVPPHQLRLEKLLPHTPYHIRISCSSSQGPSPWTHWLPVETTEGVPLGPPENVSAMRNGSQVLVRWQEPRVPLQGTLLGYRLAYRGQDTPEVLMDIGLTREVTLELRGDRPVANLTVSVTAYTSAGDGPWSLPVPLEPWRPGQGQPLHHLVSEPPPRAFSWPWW

[3] = target: recombinant human AXL protein (human, UniProt P30530 26-451); remark: listed apart in the source
Target sequence in this assay (P30530 26-451): as the sequence (P30530 26-451) above

[4] = target: T2, recombinant mouse AXL protein (mouse, UniProt Q00993 19-445)
T2 chain: T1 chain

B1: anti-AXL single domain antibody sdAb19 (VHH)
VHH: QVQLQESGGGMVQPGGSLRLSCAASGFTFTSYDMTWLRQTPGKGPEWVSTISTGGLRTYYGNSVKGRFIISRDNTKNTLYLQMNSLKPEDTALYYCARGPFTVADPRRGQGTQVTVSS
Kd [1]: 24 nM
Kd [2]: 11.8 nM

B4: anti-AXL single domain antibody sdAb4 (VHH)
VHH: QVQLQESGGGLVQPGGSLRLSCVASGSIFSIYAMGWYRQAPGKQRELVAGISSGGSTNYADSVKGRFTISRDNAKNTVYLQMNSLKPEDTAVYYCNYDLVKAVTGEYDYWGQGTQVTVSS
Kd [1]: 10.8 nM
Kd [2]: 541 nM

B5: anti-AXL single domain antibody sdAb12 (VHH)
VHH: B4 VHH with Q13K, K101E
Kd [1]: 7.7 nM
Kd [2]: 354 nM

Further lines, results first:

Kd [3]: 22 nM
Kd [4]: 5.2 nM
B2: anti-AXL single domain antibody sdAb20 (VHH)
VHH: B1 VHH with M11L, Q13R

Kd [1]: 9.1 nM
Kd [2]: 439 nM
B3: anti-AXL single domain antibody sdAb25 (VHH)
VHH: B4 VHH with K101E
